This experiment has as its target BI 655089 (llama). As to the kind of experiment: flow cytometry on cells. (In general: Flow cytometry measures light scatter and fluorescence of single cells or particles in a stream.)

B1: human CX3CR1 (receptor, UniProt P49238 1-355, looked up)
chain: MDQFPESVTENFEYDDLAEACYIGDIVVFGTVFLSIFYSVIFAIGLVGNLLVVFALTNSKKPKSVTDIYLLNLALSDLLFVATLPFWTHYLINEKGLHNAMCKFTTAFFFIGFFGSIFFITVISIDRYLAIVLAANSMNNRTVQHGVTISLGVWAAAILVAAPQFMFTKQKENECLGDYPEVLQEIWPVLRNVETNFLGFLLPLLIMSYCYFRIIQTLFSCKNHKKAKAIKLILLVVIVFFLFWTPYNVMIFLETLKLYDFFPSCDMRKDLRLALSVTETVAFSHCCLNPLIYAFAGEKFRRYLYHLYGKCLAVLCGRSVHVDFSSSESQRSRHGSVLSSNFTYHTSDGDALLLL
On to B1, for which the binding result was “binds”.

(Values after paper PMC6973309 (mAbs, 2020).)
